According to publication PMC6599478 (Mucosal immunology, 2019):

Target: recombinant full length Tenascin-C, large isoform (TNC-L) (human, UniProt P24821 23-2201)
Experiment: ELISA

Sequence of recombinant full length Tenascin-C, large isoform (TNC-L) (P24821 23-2201): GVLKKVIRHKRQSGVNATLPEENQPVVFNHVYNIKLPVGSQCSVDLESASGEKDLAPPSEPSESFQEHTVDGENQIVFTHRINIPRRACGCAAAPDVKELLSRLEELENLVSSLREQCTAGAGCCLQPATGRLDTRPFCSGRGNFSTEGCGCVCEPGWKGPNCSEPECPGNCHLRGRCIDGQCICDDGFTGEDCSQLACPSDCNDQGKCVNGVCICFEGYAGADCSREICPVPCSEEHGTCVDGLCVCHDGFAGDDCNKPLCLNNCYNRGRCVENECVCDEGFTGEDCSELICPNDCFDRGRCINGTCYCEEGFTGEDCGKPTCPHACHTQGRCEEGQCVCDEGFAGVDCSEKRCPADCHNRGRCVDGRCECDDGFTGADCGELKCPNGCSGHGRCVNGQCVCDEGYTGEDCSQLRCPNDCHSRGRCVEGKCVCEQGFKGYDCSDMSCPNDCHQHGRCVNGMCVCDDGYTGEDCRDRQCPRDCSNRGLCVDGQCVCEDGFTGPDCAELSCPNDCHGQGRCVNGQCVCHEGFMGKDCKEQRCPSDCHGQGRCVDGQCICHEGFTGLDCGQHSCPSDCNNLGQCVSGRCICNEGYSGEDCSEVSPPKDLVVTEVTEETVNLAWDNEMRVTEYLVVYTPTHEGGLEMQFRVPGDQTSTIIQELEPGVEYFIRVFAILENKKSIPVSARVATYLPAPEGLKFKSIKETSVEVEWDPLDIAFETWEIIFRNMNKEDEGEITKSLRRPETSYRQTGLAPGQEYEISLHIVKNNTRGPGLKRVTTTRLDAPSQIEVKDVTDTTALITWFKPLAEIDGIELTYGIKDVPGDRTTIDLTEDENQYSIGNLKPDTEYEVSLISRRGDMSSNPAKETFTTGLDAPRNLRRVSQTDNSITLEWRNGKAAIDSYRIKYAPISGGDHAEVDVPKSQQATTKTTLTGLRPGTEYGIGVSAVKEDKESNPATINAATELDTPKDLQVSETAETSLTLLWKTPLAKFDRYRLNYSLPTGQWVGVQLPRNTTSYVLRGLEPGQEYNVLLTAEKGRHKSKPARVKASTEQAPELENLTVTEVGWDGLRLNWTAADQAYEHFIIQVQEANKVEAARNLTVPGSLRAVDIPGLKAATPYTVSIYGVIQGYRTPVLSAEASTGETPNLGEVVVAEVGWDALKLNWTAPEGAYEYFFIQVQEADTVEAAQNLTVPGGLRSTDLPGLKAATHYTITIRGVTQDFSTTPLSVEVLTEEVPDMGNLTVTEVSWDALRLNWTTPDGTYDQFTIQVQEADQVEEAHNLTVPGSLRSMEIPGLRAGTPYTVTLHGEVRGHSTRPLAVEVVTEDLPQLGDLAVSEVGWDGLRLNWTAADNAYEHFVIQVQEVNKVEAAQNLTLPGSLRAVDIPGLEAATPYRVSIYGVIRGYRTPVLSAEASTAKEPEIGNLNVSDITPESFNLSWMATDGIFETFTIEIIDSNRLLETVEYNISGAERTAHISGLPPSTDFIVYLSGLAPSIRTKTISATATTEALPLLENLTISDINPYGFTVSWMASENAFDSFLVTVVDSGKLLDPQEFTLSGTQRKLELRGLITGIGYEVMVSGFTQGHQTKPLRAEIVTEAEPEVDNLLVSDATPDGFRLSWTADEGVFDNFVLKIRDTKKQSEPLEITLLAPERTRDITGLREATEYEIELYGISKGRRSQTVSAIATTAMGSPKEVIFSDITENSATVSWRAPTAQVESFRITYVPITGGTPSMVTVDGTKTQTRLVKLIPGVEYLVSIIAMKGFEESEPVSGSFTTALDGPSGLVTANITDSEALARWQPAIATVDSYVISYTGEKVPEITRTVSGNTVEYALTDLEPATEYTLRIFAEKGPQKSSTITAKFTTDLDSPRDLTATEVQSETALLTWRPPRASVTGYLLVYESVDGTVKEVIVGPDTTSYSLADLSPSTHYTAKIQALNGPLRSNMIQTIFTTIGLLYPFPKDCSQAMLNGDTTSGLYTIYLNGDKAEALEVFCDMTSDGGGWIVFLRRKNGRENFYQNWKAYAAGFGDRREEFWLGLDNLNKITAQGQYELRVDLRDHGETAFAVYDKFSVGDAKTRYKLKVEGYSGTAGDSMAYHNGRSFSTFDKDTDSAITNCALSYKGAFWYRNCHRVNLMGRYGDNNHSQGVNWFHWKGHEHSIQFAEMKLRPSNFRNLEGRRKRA

| Binder | binding result |
| --- | --- |
| TRPNYNKRKRIHIGPGRAFYTTKNIIGTIRQAH [MN V3 complete V3 loop peptide (33 amino acid linear peptide, wild type)] | binds |
| TRPNYNKRKRIHIGPGRAFYTTKNIIGAARQAH [MNV3 326/327 Mutant peptide (T326A/I327A)] | binds |
| TRPNYNKRKRIHIGPGRAFYTTAAIIGTIRQAH [MNV3 321/322 Mutant peptide (K321A/N322A)] | binds |
| TRPNYNKRKRIHIGPGRAFYTTAAIIGAARQAH [MNV3 Quad Mutant peptide (K321A/N322A/T326A/I327A)] | binds |
